Data from the supplement of paper PMC10567573.

B1: CLINT1 (parent)
chain: VVTSAREHIYDLRSLENYHFVDEH

Variants of: B1
Test: protein stability index of a GFP-peptide fusion (GPS, HEK-293T) (PSI 1-6); higher = more stable
Settings: c terminus: a fixed tail appended
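Note: lentivirally expressed fusions sorted by FACS into six bins by GFP to DsRed ratio, PSI derived from sequencing read proportions per bin multiplied by bin number.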

Variant | protein stability index
D11C | 2.4
D11I | 2.83
D11R | 2.62
D11S | 2.64
D11V | 2.89
D11G | 2.61
D11N | 2.63
D11L | 2.44
D11M | 2.62
D11A | 2.79
D11Y | 2.02
D11W | 2.13
D11K | 2.13
D11T | 2.17
D11Q | 2.54
D11H | 2.3
D11P | 2.56
D11F | 1.25
D11E | 2.38
L12F | 2.61
L12S | 3.13
L12K | 3.78
L12Q | 4.09
L12E | 4.03

Variant | protein stability index
L12C | 2.61
L12R | 3.6
L12V | 2.7
L12W | 2.7
L12I | 2.89
L12M | 3.39
L12G | 3.78
L12T | 3.99
L12Y | 2.4
L12D | 4.08
L12P | 3.21
L12A | 3.42
L12N | 3.78
L12H | 3.32
Y10R | 3.78
Y10I | 2.32
Y10V | 2.67
Y10W | 2.06
Y10H | 2.9
Y10L | 2.71
Y10G | 3.91
Y10P | 4.21
Y10D | 3.94
Y10K | 3.64

Variant | protein stability index
Y10F | 2.42
Y10N | 3.71
Y10M | 3.01
Y10C | 3.66
Y10S | 3.37
Y10E | 4.17
Y10A | 3.84
Y10Q | 3.75
Y10T | 3.8
S4T | 3.18
S4V | 2.47
S4R | 2.65
S4P | 3.4
S4Y | 1.48
S4W | 2.48
S4Q | 2.91
R13K | 3.45
R13F | 1.73
R13C | 2.38
R13D | 3.59
R13E | 3.73
R13A | 3.55
R13I | 2.49
R13G | 2.7

Variant | protein stability index
R13H | 2.67
I9P | 3.59
I9T | 3.31
I9M | 3.06
I9C | 2.83
I9F | 2.61
I9R | 3.66
I9L | 2.83
I9Q | 4.09
I9V | 3.16
I9D | 3.54
I9W | 2.21
I9A | 2.98
I9Y | 2.15
I9N | 4.5
I9G | 3.83
I9K | 3.48
I9E | 3.62
I9H | 3.24
I9S | 4.07
A5N | 2.92
A5H | 2.83
A5E | 3.81
A5S | 3.15

Variant | protein stability index
A5F | 2.53
A5L | 1.97
A5Q | 3.71
A5V | 2.24
A5R | 2.67
A5W | 2.16
A5M | 2.57
A5Y | 2.24
A5T | 2.98
A5G | 3.15
A5D | 3.53
A5I | 3.23
A5K | 2.36
A5C | 2.08
A5P | 3.35
H8F | 1.9
H8D | 3.48
H8Y | 1.89
H8S | 3.31
H8N | 2.83
H8I | 2.65
H8E | 2.99
H8W | 2.12
H8R | 2.61

Variant | protein stability index
H8T | 2.91
H8V | 2.22
H8C | 2.1
H8A | 2.52
H8M | 2.33
H8G | 3.13
H8Q | 3.16
H8P | 3.21
H8K | 2.45
H8L | 2.29
E7V | 2.26
E7L | 2.3
E7A | 2.41
E7W | 2.44
E7M | 1.39
E7P | 2.44
E7T | 2.73
E7D | 2.29
E7K | 2.77
E7S | 2.4
E7G | 1.73
E7C | 1.86
E7Q | 1.85
E7F | 1.9

Variant | protein stability index
E7N | 2.64
E7H | 2.17
E7Y | 2.57
E7R | 2.07
R6I | 1.84
R6K | 3.48
R6A | 2.45
R6H | 3.07
R6C | 2.91
R6Y | 2.35
R6G | 3.04
R6N | 3.14
R6V | 2.31
R6S | 3.93
R6D | 3.63
R6P | 3.08
R6Q | 3.4
R6T | 2.75
R6L | 1.75
R6E | 3.87
R6F | 1.55
R6M | 2.33
R6W | 3.17
